Results reported in article PMC8024259, “The Pah-R261Q mouse reveals oxidative stress associated with amyloid-like hepatic aggregation of mutant phenylalanine hydroxylase” (Nature Communications, 2021).
Substitutions are numbered along the chain they refer to. Names may count otherwise.

B1: Recombinant human WT-PAH (phenylalanine hydroxylase) (enzyme, UniProt P00439 1-452, looked up)
chain: MSTAVLENPGLGRKLSDFGQETSYIEDNCNQNGAISLIFSLKEEVGALAKVLRLFEENDVNLTHIESRPSRLKKDEYEFFTHLDKRSLPALTNIIKILRHDIGATVHELSRDKKKDTVPWFPRTIQELDRFANQILSYGAELDADHPGFKDPVYRARRKQFADIAYNYRHGQPIPRVEYMEEEKKTWGTVFKTLKSLYKTHACYEYNHIFPLLEKYCGFHEDNIPQLEDVSQFLQTCTGFRLRPVAGLLSSRDFLGGLAFRVFHCTQYIRHGSKPMYTPEPDICHELLGHVPLFSDRSFAQFSQEIGLASLGAPDEYIEKLATIYWFTVEFGLCKQGDSIKAYGAGLLSSFGELQYCLSEKPKLLPLELEKTAIQNYTVTEFQPLYYVAESFNDAKEKVRNFAATIPRPFSVRYDPYTQRIEVLDNTQQLKILADSINSEIGILCSALQKIK
notes: phenylalanine hydroxylase, human, expressed from pMAL as MBP-(pep)xa-PAH and cleaved with Factor Xa; source: E. coli TB1, purified (amylose resin, Factor Xa cleavage, SEC); not shown: MBP, N-terminal, cleaved
B2: Recombinant human p.R261Q-PAH (phenylalanine hydroxylase, p.Arg261Gln variant) (enzyme, UniProt P00439 1-452, looked up)
chain: B1 chain with R261Q
notes: phenylalanine hydroxylase, human, PKU patient variant p.R261Q, expressed from pMAL as MBP-(pep)xa-PAH and cleaved with Factor Xa; Variant that occurs in PKU patients (c.782G>A); also called p.PAH-R261Q; source: E. coli TB1, purified (amylose resin, Factor Xa cleavage, SEC); not shown: MBP, N-terminal, cleaved

Molecular target: the molecule itself
Assay: SEC; preparative isolation of the tetramer after Factor Xa cleavage; Superdex HiLoad 16/600 200, 20 mM Hepes pH 7, 200 mM NaCl

Row | Protein | stoichiometry N
1 | B1 | 4
2 | B2 | 4
